T1: AR2FLAG (solubilized receptor: extracellular domain of human AR2 with FLAG tag at the C terminus), … (human, UniProt P48551 27-243, biotin-labeled (NHS-PEO4-Biotin))
T1 construct: extracellular domain; captured on streptavidin plates for the phage ELISA; also called biotin-labeled AR2FLAG; AR2 chain of type-I interferon receptor; not shown: FLAG tag at the C terminus
T1 sequence (looked up): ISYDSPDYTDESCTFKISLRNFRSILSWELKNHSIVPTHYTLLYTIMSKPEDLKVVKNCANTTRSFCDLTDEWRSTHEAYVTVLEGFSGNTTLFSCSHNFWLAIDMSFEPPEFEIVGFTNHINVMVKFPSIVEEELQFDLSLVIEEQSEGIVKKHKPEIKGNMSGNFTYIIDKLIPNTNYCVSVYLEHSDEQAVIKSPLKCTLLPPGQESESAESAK

T2: AR1FLAG (solubilized receptor: extracellular domain of human AR1 with FLAG tag at the C terminus), … (human, UniProt P17181 28-436, biotin-labeled (NHS-PEO4-Biotin))
T2 construct: extracellular domain; captured on streptavidin plates for the phage ELISA; also called biotin-labeled AR1FLAG; AR1 chain of type-I interferon receptor; not shown: FLAG tag at the C terminus
T2 sequence (looked up): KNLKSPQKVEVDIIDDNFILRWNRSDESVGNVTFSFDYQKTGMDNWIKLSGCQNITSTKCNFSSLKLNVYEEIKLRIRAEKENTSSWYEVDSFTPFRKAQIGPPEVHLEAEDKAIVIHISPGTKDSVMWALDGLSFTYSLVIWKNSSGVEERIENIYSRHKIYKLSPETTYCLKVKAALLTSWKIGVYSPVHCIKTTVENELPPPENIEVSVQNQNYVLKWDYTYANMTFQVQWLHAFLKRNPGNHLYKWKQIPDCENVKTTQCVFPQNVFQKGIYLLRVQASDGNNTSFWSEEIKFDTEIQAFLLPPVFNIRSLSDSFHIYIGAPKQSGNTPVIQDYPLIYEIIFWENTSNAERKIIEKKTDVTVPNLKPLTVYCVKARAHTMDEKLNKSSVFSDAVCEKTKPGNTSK


Biological target: T1, AR2FLAG (solubilized receptor: …)
Assay: phage ELISA, biotin-labeled AR2FLAG on streptavidin plates, anti-M13-HRP detection
Method: (§1) The single colonies described above were inoculated to 150 μl of 2×YTAG and cultured at 30° C. overnight. 51 μl of the cultures was inoculated to 500 μl of 2×YTAG, and incubated at 37° C. for two hours. Then 100 μl of 2×YTAG containing 2.5×10⁹ pfu of helper phage and 0.3 μl of 1 mol/l IPTG was added to the cultures, and allowed to stand at 37° C. for 30 minutes. The cultures were then incubated at 30° C. overnight, and their culture supernatant was subjected to ELISA. StreptaWell 96-well microtiter plates (Roche) were coated overnight with 100 μl of PBS containing 1.0 μg/ml biotin-labeled AR1FLAG or AR2FLAG The plates were washed with PBST to remove free antigens, and then blocked overnight with 200 μl of 2% M-PBS. 2% M-PBS was removed and the culture supernatant was added to the plates. The plates were allowed to stand for 40 minutes to bind with the antibodies. After the plates were washed, bound phages were detected using HRP-conjugated anti-M13 antibody (Amersham Pharmacia Biotech) diluted with 2% M-PBS and BM blue POD substrate (Roche). The reaction was stopped by adding sulfuric acid, and absorbance was determined at 450 nm.

Row | Binder | binding result
1 | AR2-31 (anti-AR2 chain scFv clone) (scFv, V domains shown, scFv fused to f1 phage gene 3 product on phage in the ELISA) VH: EVQLQQSGPELVRPGVSVKISCKGSSYKFTDYAMHWVKQSHAKSLEWIGVISTYYGNVKYNQKFKGKATMTVDKSSSTAYMELARLTSEDSAVYYCARSYGSYLDYWGQGTSVTVSS VL: not shown | binds
2 | AR2-14 (anti-AR2 chain scFv clone) (scFv, V domains shown, scFv fused to f1 phage gene 3 product on phage in the ELISA) VH: QVQLQQSGAELVRPGTSVKVSCKASGYAFTNYLIEWVKQRPGQGPEWIGVINPGSGNIRYNGKFKGKATLTADKSSSTAYMQLSSLTSDDSAVYFCARDAYYVGAMDYWGQGTSVTVSS VL: not shown | binds
3 | AR2-44 (anti-AR2 chain scFv clone) (scFv, V domains shown, scFv fused to f1 phage gene 3 product on phage in the ELISA) VH: QVQLQQSEAELVRPETSVKVSCKASGYSFRNYLIEWVKQRPGQGLEWIGVINPGSGNTKYNEKFKGKATLTADKSSSTAYMQLSSLTSDDSAVYFCARDGYYLGTMDYWGQGTSVTVSS VL: not shown | binds
4 | AR2-33 (anti-AR2 chain scFv clone) (scFv, V domains shown, scFv fused to f1 phage gene 3 product on phage in the ELISA) VH: QVQLQQSGAELVRPGTSVKVSCKASGYAFINNLIEWVQQRPGQGLEWIGVINPGSGNVKYNEKFKGKATLTADKSSSTAYMQLSSLTSDDSAVYFCARDGYYLGTMDHWGQGTSVTVSS VL: not shown | binds
5 | AR2-13 (anti-AR2 chain scFv clone) (scFv, V domains shown, scFv fused to f1 phage gene 3 product on phage in the ELISA) VH: QVQLQQSGGELVRPGTSVKVSCKASGYAFTNYLIEWVKQRPGQGLDWIGMINPGSGGTKCNKKFKGKVTLTADKSSSTAYMHLSSLTSDDSAVYFCARSGWVSAMDYWGQGTSVTVSS VL: not shown | binds
6 | AR2-45 (anti-AR2 chain scFv clone) (scFv, V domains shown, scFv fused to f1 phage gene 3 product on phage in the ELISA) VH: QVQLQQSGVELVRPGTSVKVSCKASGYAFTNYLIEWVKQRPGQGLDWIGMINPGSGGTKCNKKFKGKVTLTADKSSSTAYMHLSSLTSDDSAVYFCARSGWVYAMDYWGQGTSVTVSS VL: not shown | binds
7 | AR2-37 (anti-AR2 chain scFv clone) (scFv, V domains shown, scFv fused to f1 phage gene 3 product on phage in the ELISA) VH: QVQLQQSGPELVRPGVSVKISCKGSGYTFTDYAIHWVRQSHAQSLEWIGVIGTYSGNRNYNQKFKGKATMTVDKSSSTAYMELARLTSEDSAIYYCARSAGYSLDFWGQGTSVTVSS VL: not shown | binds
8 | AR2-22 (anti-AR2 chain scFv clone) (scFv, V domains shown, scFv fused to f1 phage gene 3 product on phage in the ELISA) VH: QVQLQQSGPELVRPGVSVKISCKGSGYRFTDYAIHWVKQSHAKSLEWIGVISTYYGNTRYNQKFKGKATMTVDKSSSTAYMELASLTSEDSVIYYCARSGGSLMDYWGQGTSVTVSS VL: not shown | binds
9 | AR2-43 (anti-AR2 chain scFv clone) (scFv, V domains shown, scFv fused to f1 phage gene 3 product on phage in the ELISA) VH: QVQLQQSGPELVRPGVSVKISCKGSGYTFTDYAMHWVKQSHAKSLEWIGVISTYYSNTRYNQKFKGKATMTVDKSSSTAYMELARLTSEDSAIYYCVRSGGSNMDYWGQGTSVTVSS VL: not shown | binds
10 | AR2-40 (anti-AR2 chain scFv clone) (scFv, V domains shown, scFv fused to f1 phage gene 3 product on phage in the ELISA) VH: QVQLQQSGPELVRPGVSVKISCKGSSYKFTDYAMHWVKQSHAKSLEWIGVISTYYGNVKYNQKFKGKATMTVDKSSSTAYMELARLTSEDSAVYYCARSSGSYLDYWGQGTSVTVSS VL: not shown | binds

Biological target: T2, AR1FLAG (solubilized receptor: …)
Assay: phage ELISA, biotin-labeled AR1FLAG on streptavidin plates, anti-M13-HRP detection
Method: as §1

Row | Binder | binding result
11 | AR1-41 (anti-AR1 chain scFv clone) (scFv, V domains shown, In the phage ELISA it stood as a mouse scFv fused to the f1 phage gene 3 product on phage) VH: QVQLKQSGAELVRPGASVRLSCKASGYTFTFYWINWIKQRPEQGLEWIGRIDPYDSETRYNQKFKDKAILTVDKYSSTAYMQLSSLTSEDSAVYYCAKGVYDGHWFFDVWGAGTSVTVSS VL: DIVMTQSHKFMSTSVGDRVSITCKASQDVSTAVAWYQQKPGQSPKLLIYSASYRYTGVPARFSGSGSGTDFTFTISSVQTEDLAVYYCQQHYRTPPTFGGGTKLELKR | binds
12 | AR1-24 (anti-AR1 chain scFv clone) (scFv, V domains shown, scFv fused to f1 phage gene 3 product on phage in the ELISA) VH: QVQLQQSGPELEKPGASVKISCKASGYSFSDYNMNWVKQSNGKSLEWIGNIDPYNGDTNYNQKFKGKATLTLDKSSSTAYMQLKSLTSEDSAVYFCARSRGWLLPFAYWGQGTLVTVSA VL: DILMTQSQKFMSTSVGDRVSVTCKASQNVGINVAWYQQKPGQSPKALIYSASYRYSGVPDRFTGSGSGTDFTLTISNVQSEDLAEYFCQQYNSYPLTFGGGTKLEIKR | binds

Source: patent US20060204496A1 (published 2006)
